Read-outs that look alike come from different tables or passages of the source.
Experiments:
recombinant GST-Arc [1] = target: recombinant GST-Arc (UniProt Q63053); test: Scatchard analysis
recombinant GST-Arc [2] = target: recombinant GST-Arc (UniProt Q63053); test: Scatchard analysis; remark: listed apart in the source

UniProt Q63053, sequence (Q63053 whole entry): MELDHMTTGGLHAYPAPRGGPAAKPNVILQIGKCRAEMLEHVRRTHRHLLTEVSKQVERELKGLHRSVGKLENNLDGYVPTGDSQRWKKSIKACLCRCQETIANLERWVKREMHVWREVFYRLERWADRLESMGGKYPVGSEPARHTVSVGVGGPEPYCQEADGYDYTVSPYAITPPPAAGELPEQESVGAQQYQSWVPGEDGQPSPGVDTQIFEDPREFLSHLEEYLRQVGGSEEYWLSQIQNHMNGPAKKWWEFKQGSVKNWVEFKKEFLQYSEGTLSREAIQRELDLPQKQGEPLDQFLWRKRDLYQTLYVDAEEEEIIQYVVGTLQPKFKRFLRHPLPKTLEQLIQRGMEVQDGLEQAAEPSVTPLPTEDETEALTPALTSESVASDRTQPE

- Kd (recombinant GST-Arc [1]): 10 µM
- Kd (recombinant GST-Arc [2]): 60 µM
Substance: recombinant CaMKIIα (from UniProt P11275 1-478) (enzyme)

— paper PMC4856149
